Results as given in patent US20260167721A1 (ABLEXIS, published 2026).

What was measured:
CD33 on KILR-HL60 cells [1] = target: T1, CD33 on KILR-HL60 cells (UniProt P20138 18-364, limits assumed); assay: flow cytometry on KILR-HL60 (CD33 expressing) cells, antibody at 1 ug/ml
T1 construct: whole, on cells; Target of the gemtuzumab arm; also called CD33 expressing cells

[2] = target: T2, CD3 on Jurkat wild-type cells (UniProt P07766 23-207; P04234 22-171; P09693 23-182); assay: flow cytometry on Jurkat WT cells, antibody at 1 ug/ml
T2 construct: whole, on cells; also called Jurkat WT
T2 sequence (P07766 23-207, chain 1 of 3): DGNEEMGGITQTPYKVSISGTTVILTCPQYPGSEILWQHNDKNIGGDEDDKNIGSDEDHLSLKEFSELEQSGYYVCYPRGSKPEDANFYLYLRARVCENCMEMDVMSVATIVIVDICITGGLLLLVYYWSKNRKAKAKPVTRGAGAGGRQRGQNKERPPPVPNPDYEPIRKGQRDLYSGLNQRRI
T2 sequence (P04234 22-171, chain 2 of 3): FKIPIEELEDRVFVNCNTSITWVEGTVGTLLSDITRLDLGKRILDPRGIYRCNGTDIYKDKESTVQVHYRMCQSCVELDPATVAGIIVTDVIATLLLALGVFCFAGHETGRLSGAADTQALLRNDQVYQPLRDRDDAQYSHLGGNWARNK
T2 sequence (P09693 23-182, chain 3 of 3): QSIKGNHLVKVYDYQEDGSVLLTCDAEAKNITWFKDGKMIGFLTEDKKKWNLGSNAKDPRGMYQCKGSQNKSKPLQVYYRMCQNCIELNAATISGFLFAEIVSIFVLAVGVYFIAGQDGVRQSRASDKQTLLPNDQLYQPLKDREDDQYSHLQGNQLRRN

[3] = target: T2, CD3 on Jurkat wild-type cells; assay: flow cytometry on Jurkat WT cells, antibody at 10 ug/ml
CD33 on KILR-HL60 cells [4] = target: T1, CD33 on KILR-HL60 cells; assay: flow cytometry on KILR-HL60 (CD33 expressing) cells, antibody at 10 ug/ml
[5] = target: T3, recombinant human CD3 epsilon/gamma heterodimer (human, UniProt P07766 23-126; P09693 23-116); assay: Octet BLI, mAb on FAB2G sensor, hCD3 E/G 200-50 nM; R^2 0.98
T3 construct: Recombinant protein in solution (200-50 nM) in the Octet assay; also called hCD3 E/G
T3 sequence (P07766 23-126, chain 1 of 2): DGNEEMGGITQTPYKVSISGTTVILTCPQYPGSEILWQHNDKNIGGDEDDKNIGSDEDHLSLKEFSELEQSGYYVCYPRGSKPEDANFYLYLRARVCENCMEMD
T3 sequence (P09693 23-116, chain 2 of 2): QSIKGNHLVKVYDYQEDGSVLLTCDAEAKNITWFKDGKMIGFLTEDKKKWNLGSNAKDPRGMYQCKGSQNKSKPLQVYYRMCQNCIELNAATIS
Method: (§1) Samples were evaluated by flow cytometry analysis against Jurkat and human Pan-T cells (FIG. 1B) as well as by Octet against recombinant human CD3 proteins to evaluate apparent affinities and binding off-rates (Table 6, infra).

[6] = target: T4, recombinant human CD3 epsilon/delta heterodimer (human, UniProt P07766 23-126; P04234 22-105); assay: Octet BLI, mAb on FAB2G sensor, hCD3 E/D 200-50 nM; R^2 0.97
T4 construct: Recombinant protein in solution (200-50 nM) in the Octet assay; also called hCD3 E/D; human CD3E/D
T4 sequence (P07766 23-126, stated change not applied, chain 1 of 2): as the sequence (P07766 23-126, chain 1 of 2) above
T4 sequence (P04234 22-105, stated change not applied, chain 2 of 2): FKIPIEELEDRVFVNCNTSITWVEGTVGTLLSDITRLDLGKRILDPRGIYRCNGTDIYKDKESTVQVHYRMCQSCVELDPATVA
Method: as §1

[7] = target: T3, recombinant human CD3 epsilon/gamma …; assay: Octet BLI, mAb on FAB2G sensor, hCD3 E/G 200-50 nM; R^2 0.94
Method: as §1

[8] = target: T4, recombinant human CD3 epsilon/delta …; assay: Octet BLI, mAb on FAB2G sensor, hCD3 E/D 200-50 nM; R^2 1.00

T1 sequence (P20138 18-364 limits assumed): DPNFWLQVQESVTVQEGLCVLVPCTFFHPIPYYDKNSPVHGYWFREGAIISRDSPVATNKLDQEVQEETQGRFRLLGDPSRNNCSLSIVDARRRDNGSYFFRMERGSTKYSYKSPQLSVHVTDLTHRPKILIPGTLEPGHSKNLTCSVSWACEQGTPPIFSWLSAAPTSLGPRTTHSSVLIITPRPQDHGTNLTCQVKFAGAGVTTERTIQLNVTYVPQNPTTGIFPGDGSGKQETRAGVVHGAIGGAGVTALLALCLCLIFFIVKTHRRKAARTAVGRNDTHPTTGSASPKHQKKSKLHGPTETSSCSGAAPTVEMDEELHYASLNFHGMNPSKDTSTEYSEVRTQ

Row | Binder | flow cytometry signal (CD33 on KILR-HL60 cells [1]) | flow cytometry signal [2] | flow cytometry signal [3] | flow cytometry signal (CD33 on KILR-HL60 cells [4]) | Kd [7] | Response [7] | koff [7] | kon [7] | also measured
1 | CD3 × CD33-BspAb36 (bispecific antibody) scFv-Fc: not shown heavy: EVQLVQSGAEVKKPGSSVKVSCKASGYTITDSNIHWVRQAPGQSLEWIGYIYPYNGGTDYNQKFKNRATLTVDNPTNTAYMELSSLRSEDTAFYYCVNGNPWLAYWGQGTLVTVSSASTKGPSVFPLAPSSKSTSGGTAALGCLVKDYFPEPVTVSWNSGALTSGVHTFPAVLQSSGLYSLSSVVTVPSSSLGTQTYICNVNHKPSNTKVDKRVEPKSCDKTHTCPPCPAPEFEGGPSVFLFPPKPKDTLMISRTPEVTCVVVDVSHEDPEVKFNWYVDGVEVHNAKTKPREEQYNSTYRVVSVLTVLHQDWLNGKEYKCKVSNKALPASIEKTISKAKGQPREPQVCTLPPSREEMTKNQVSLSCAVKGFYPSDIAVEWESNGQPENNYKTTPPVLDSDGSFFLVSKLTVDKSRWQQGNVFSCSVMHEALHNRFTQKSLSLSPGK light: DIQLTQSPSTLSASVGDRVTITCRASESLDNYGIRFLTWFQQKPGKAPKLLMYAASNQGSGVPSRFSGSGSGTEFTLTISSLQPDDFATYYCQQTKEVPWSFGQGTKVEVKRTVAAPSVFIFPPSDEQLKSGTASVVCLLNNFYPREAKVQWKVDNALQSGNSQESVTEQDSKDSTYSLSSTLTLSKADYEKHKVYACEVTHQGLSSPVTKSFNRGEC | 569000 | 12500 | 26100 | 746000 |  |  |  |  | 
2 | CD3 × CD33-BspAb42 (bispecific antibody) chain 1: EVQLVESGGGLVKPGGSLRLSCAASGFTLSSYSMNWVRQAPGKCLEWVSSISRSGSYIYYADSVKGRFTISRDNAKNSLYLQMNSLRAEDTAVYYCAREKWELLYFDYWGQGTLVTVSSGGGGSGGGGSGGGGSGGGGSNFMLTQPHSVSESPGKTVTISCTRSSGSIASNYVQWYQQRPGSSPTTVIYEDNQRPSGVPDRFSGSIDSSSNSASLTISGLKTEDEADYYCQSYDSSNRVFGCGTKLTVLDKTHTCPPCPAPEFEGGPSVFLFPPKPKDTLMISRTPEVTCVVVDVSHEDPEVKFNWYVDGVEVHNAKTKPREEQYNSTYRVVSVLTVLHQDWLNGKEYKCKVSNKALPASIEKTISKAKGQPREPQVYTLPPCREEMTKNQVSLWCLVKGFYPSDIAVEWESNGQPENNYKTTPPVLDSDGSFFLYSKLTVDKSRWQQGNVFSCSVMHEALHNHYTQKSLSLSPGK chain 2: EVQLVQSGAEVKKPGSSVKVSCKASGYTITDSNIHWVRQAPGQSLEWIGYIYPYNGGTDYNQKFKNRATLTVDNPTNTAYMELSSLRSEDTAFYYCVNGNPWLAYWGQGTLVTVSSASTKGPSVFPLAPSSKSTSGGTAALGCLVKDYFPEPVTVSWNSGALTSGVHTFPAVLQSSGLYSLSSVVTVPSSSLGTQTYICNVNHKPSNTKVDKRVEPKSCDKTHTCPPCPAPEFEGGPSVFLFPPKPKDTLMISRTPEVTCVVVDVSHEDPEVKFNWYVDGVEVHNAKTKPREEQYNSTYRVVSVLTVLHQDWLNGKEYKCKVSNKALPASIEKTISKAKGQPREPQVCTLPPSREEMTKNQVSLSCAVKGFYPSDIAVEWESNGQPENNYKTTPPVLDSDGSFFLVSKLTVDKSRWQQGNVFSCSVMHEALHNRFTQKSLSLSPGK chain 3: DIQLTQSPSTLSASVGDRVTITCRASESLDNYGIRFLTWFQQKPGKAPKLLMYAASNQGSGVPSRFSGSGSGTEFTLTISSLQPDDFATYYCQQTKEVPWSFGQGTKVEVKRTVAAPSVFIFPPSDEQLKSGTASVVCLLNNFYPREAKVQWKVDNALQSGNSQESVTEQDSKDSTYSLSSTLTLSKADYEKHKVYACEVTHQGLSSPVTKSFNRGEC | 453000 | 12200 | 26400 | 485000 |  |  |  |  | 
3 | CD3 × CD33-BspAb39 (bispecific antibody) chain 1: not shown chain 2: EVQLVQSGAEVKKPGSSVKVSCKASGYTITDSNIHWVRQAPGQSLEWIGYIYPYNGGTDYNQKFKNRATLTVDNPTNTAYMELSSLRSEDTAFYYCVNGNPWLAYWGQGTLVTVSSASTKGPSVFPLAPSSKSTSGGTAALGCLVKDYFPEPVTVSWNSGALTSGVHTFPAVLQSSGLYSLSSVVTVPSSSLGTQTYICNVNHKPSNTKVDKRVEPKSCDKTHTCPPCPAPEFEGGPSVFLFPPKPKDTLMISRTPEVTCVVVDVSHEDPEVKFNWYVDGVEVHNAKTKPREEQYNSTYRVVSVLTVLHQDWLNGKEYKCKVSNKALPASIEKTISKAKGQPREPQVCTLPPSREEMTKNQVSLSCAVKGFYPSDIAVEWESNGQPENNYKTTPPVLDSDGSFFLVSKLTVDKSRWQQGNVFSCSVMHEALHNRFTQKSLSLSPGK chain 3: DIQLTQSPSTLSASVGDRVTITCRASESLDNYGIRFLTWFQQKPGKAPKLLMYAASNQGSGVPSRFSGSGSGTEFTLTISSLQPDDFATYYCQQTKEVPWSFGQGTKVEVKRTVAAPSVFIFPPSDEQLKSGTASVVCLLNNFYPREAKVQWKVDNALQSGNSQESVTEQDSKDSTYSLSSTLTLSKADYEKHKVYACEVTHQGLSSPVTKSFNRGEC | 541000 | 2160 | 2740 | 572000 |  |  |  |  | 
4 | CD3 × CD33-BspAb38 (bispecific antibody) scFv-Fc: not shown heavy: EVQLVQSGAEVKKPGSSVKVSCKASGYTITDSNIHWVRQAPGQSLEWIGYIYPYNGGTDYNQKFKNRATLTVDNPTNTAYMELSSLRSEDTAFYYCVNGNPWLAYWGQGTLVTVSSASTKGPSVFPLAPSSKSTSGGTAALGCLVKDYFPEPVTVSWNSGALTSGVHTFPAVLQSSGLYSLSSVVTVPSSSLGTQTYICNVNHKPSNTKVDKRVEPKSCDKTHTCPPCPAPEFEGGPSVFLFPPKPKDTLMISRTPEVTCVVVDVSHEDPEVKFNWYVDGVEVHNAKTKPREEQYNSTYRVVSVLTVLHQDWLNGKEYKCKVSNKALPASIEKTISKAKGQPREPQVCTLPPSREEMTKNQVSLSCAVKGFYPSDIAVEWESNGQPENNYKTTPPVLDSDGSFFLVSKLTVDKSRWQQGNVFSCSVMHEALHNRFTQKSLSLSPGK light: DIQLTQSPSTLSASVGDRVTITCRASESLDNYGIRFLTWFQQKPGKAPKLLMYAASNQGSGVPSRFSGSGSGTEFTLTISSLQPDDFATYYCQQTKEVPWSFGQGTKVEVKRTVAAPSVFIFPPSDEQLKSGTASVVCLLNNFYPREAKVQWKVDNALQSGNSQESVTEQDSKDSTYSLSSTLTLSKADYEKHKVYACEVTHQGLSSPVTKSFNRGEC | 635000 | 23700 | 34100 | 476000 |  |  |  |  | 
5 | ABL-CD3-38 (antibody, V domains shown, Chimeric hybridoma mAb: human V, CH1, upper hinge; mouse middle hinge, CH2, CH3) VH: QGQLQQWGAGLLKPSETLSLTCAVYGGSFSGYYWSWIRLPPGKGLEWIGEINHSGNTNYNPSLKSRVTISVDTSKNQFSLQLSSVTAADTAVYYCAKEVEIWGYFDYWGQGTLVTVSS VL: QSVLTQPPSVSGAPGQRVTISCTGSSSNIGAGYDVHWYQQLPGTAPKLLIYGNSNRPSGVPDRFSGSKSGTSASLAITGLQAEDETDYNCQSYDSSLSGYVFGTGTKVTVL |  |  |  |  |  |  |  |  | Kd [5]: 0.00136 µM; Response [5]: 0.73; koff [5]: 0.000331 s⁻¹; kon [5]: 243000 M⁻¹ s⁻¹; Kd [6]: 0.00141 µM; Response [6]: 0.73; koff [6]: 0.00035 s⁻¹; kon [6]: 248000 M⁻¹ s⁻¹
6 | ABL-CD3-1 (antibody, V domains shown, Chimeric hybridoma mAb: human V, CH1, upper hinge; mouse middle hinge, CH2, CH3) VH: EVQLVESGGGLVKPGGSLRLSCAASGFTLSSYSMNWVRQAPGKGLEWVSSISRSGSYIYYADSVKGRFTISRDNAKNSLYLQMNSLRAEDTAVYYCAREKWELLYFDYWGQGTLVTVSS VL: NFMLTQPHSVSESPGKTVTISCTRSSGSIASNYVQWYQQRPGSSPTTVIYEDNQRPSGVPDRFSGSIDSSSNSASLTISGLKTEDEADYYCQSYDSSNRVFGGGTKLTVL |  |  |  |  | 1.21 µM | 0.07 | 0.171 s⁻¹ | 142000 M⁻¹ s⁻¹ | Kd [8]: 0.108 µM; Response [8]: 0.31; koff [8]: 0.0157 s⁻¹; kon [8]: 145000 M⁻¹ s⁻¹
7 | ABL-CD3-58 (antibody, V domains shown, Chimeric hybridoma mAb: human V, CH1, upper hinge; mouse middle hinge, CH2, CH3) VH: EVQLVESGGGLVKPGGSLRLSCVVSGFTFSNYNMNWVRQAPGKGLEWVSSSSRSSYIYYADSVKGRFTISRDNAKNSLYLQMNSLRAEDTAIYYCAREKWELLFFDYWGQGTLVTVSS VL: NFMLTQPHSVSESPGKTVTISCTRSSGSIASNFVQWYQQRPGSSPTTVIYEDNQRPSGVPDRFSGSIDSSSNSASLTISGLKTEDEADYYCQSFDSSNRVFGGGTKLTVL |  |  |  |  | 0.0452 µM | 0.28 | 0.00705 s⁻¹ | 156000 M⁻¹ s⁻¹ | Kd [8]: 0.0441 µM; Response [8]: 0.57; koff [8]: 0.00265 s⁻¹; kon [8]: 60100 M⁻¹ s⁻¹
8 | ABL-CD3-14 (antibody, V domains shown, Chimeric hybridoma mAb: human V, CH1, upper hinge; mouse middle hinge, CH2, CH3) VH: EVQLVESGGGLVKPGGSLRLSCAASGFTCSSYSMTWVRQAPGKGLEWVSSISRRSSYIYYADSVKGRFTISRDNAKNSLYLQLNSLRAEDTAVYYCARERWELLYFDYWGQGTLVTVSS VL: NFMLTQPHSVSESPGKTVTISCTRSSGSIASNYVQWYQQRPGSSPTTVIYEDNQRPSGVPDRFSGSIDSSSNSASLTISGLKTEDEADYYCQSYDSSNRVFGGGTKLTVL |  |  |  |  | 0.00966 µM | 0.08 | 0.00287 s⁻¹ | 298000 M⁻¹ s⁻¹ | Kd [6]: 0.0128 µM; Response [6]: 0.17; koff [6]: 0.00152 s⁻¹; kon [6]: 119000 M⁻¹ s⁻¹
